In patent US10456446B2, “Use of human small leucine zipper protein in osteogenesis procedure” (Korea University Research and Business Foundation, priority 2013, dated 2019):
Entries after “also recorded” stand apart in the source; their conditions may differ.

B1: sLZIP: human small leucine-zipper protein, isoform of LZIP, 354 amino acids, no transmembrane domain, GenBank FJ263669, SEQ ID NO: 1 (protein, listed as Homo sapiens)
chain: MELELDAGDQDLLAFLLEESGDLGTAPDEAVRAPLDWALPLSEVPSDWEVDDLLCSLLSPPASLNILSSSNPCLVHHDHTYSLPRETVSMDLESESCRKEGTQMTPQHMEELAEQEIARLVLTDEEKSLLEKEGLILPETLPLTKTEEQILKRVRRKIRNKRSAQESRRKKKVYVGGLESRVLKYTAQNMELQNKVQLLEEQNLSLLDQLRKLQAMVIEISNKTSSSSMYSSDTRGSLPAEHGVLSRQLRALPSEDPYQLELPALQSEVPKDSTHQWLDGSDCVLQAPGNTSCLLHYMPQAPSAEPPLEWPFPDLFSEPLCRGPILPLQANLTRKGGWLPTGSPSVILQDRYSG
B2: N domains of sLZIP: N-terminal deletion mutant of sLZIP (1-228) (protein)
chain: MELELDAGDQDLLAFLLEESGDLGTAPDEAVRAPLDWALPLSEVPSDWEVDDLLCSLLSPPASLNILSSSNPCLVHHDHTYSLPRETVSMDLESESCRKEGTQMTPQHMEELAEQEIARLVLTDEEKSLLEKEGLILPETLPLTKTEEQILKRVRRKIRNKRSAQESRRKKKVYVGGLESRVLKYTAQNMELQNKVQLLEEQNLSLLDQLRKLQAMVIEISNKTSSSS
modifications: left off: a dimerising Fc or GST

What was measured:
[1] = biological target: T1, HDAC3 (Homo sapiens, UniProt O15379); test: HDAC3 ubiquitination, GST pull-down with Ha-UB in 293T cells; format: cell-based; conditions: ligand treated (10 nM RZD, 24 hours)
T1 construct: expressed in transfected cells; host or cells: 293T
T1 sequence (O15379 whole entry, species assumed): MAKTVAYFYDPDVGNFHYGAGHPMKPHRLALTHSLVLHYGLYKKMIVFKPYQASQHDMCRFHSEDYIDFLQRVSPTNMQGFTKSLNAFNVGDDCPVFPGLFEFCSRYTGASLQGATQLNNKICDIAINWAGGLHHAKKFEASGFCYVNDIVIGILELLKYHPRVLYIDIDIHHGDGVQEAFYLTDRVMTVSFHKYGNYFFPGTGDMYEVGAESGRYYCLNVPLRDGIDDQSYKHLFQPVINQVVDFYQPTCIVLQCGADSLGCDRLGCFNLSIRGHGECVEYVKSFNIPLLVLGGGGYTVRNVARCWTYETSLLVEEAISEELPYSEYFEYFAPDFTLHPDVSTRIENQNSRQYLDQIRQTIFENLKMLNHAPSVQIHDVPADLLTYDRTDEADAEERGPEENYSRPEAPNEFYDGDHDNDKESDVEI
Description: Therefore, in order to understand a regulation mechanism of sLZIP in the PPARγ2 transcriptional activity by binding to the FABP4 promoter region, an effect of sLZIP on the interaction between PPARγ2 and HDAC3 was examined. For this purpose, 293T cells were transfected with GST-HDAC3, Myc-PPARγ2 and Flag-sLZIP, and were treated or not treated with 10 nM of RZD for 24 hours. Cell lysates were subjected to GST pull-down analysis using a glutathione 4B bead, and a protein complex was analyzed in SDS-PAGE, and then immunoblotted with anti-GST, anti-Myc and anti-Flag antibodies (FIG. 6A). GST-HDAC3, GST-PPARγ2, Myc-PPARγ2, Flag-sLZIP and Ha-UB were expressed in the 293T cells, and the cells were treated with 10 nM of RZD for 24 hours. Cell lysates were subjected to GST pull-down analysis (FIG. 6B). GST-PPARγ2 and Flag-sLZIP were expressed in the 293T cells and treated with 10 nM of RZD for 24 hours. Cell lysates were subjected to GST pull-down analysis, and a protein complex was analyzed in SDS-PAGE, and then immunoblotted with anti-PGC1α, anti-GST and anti-Flag antibodies (FIG. 6C).

[2] = biological target: T2, PPARγ2 (Mus musculus, UniProt P37238); test: PPARγ2 transcriptional activity in FABP4-Luc stable C3H10T1/2 cells differentiated into adipocytes; format: cell-based; conditions: sLZIP-expressing adenovirus, differentiated into adipocytes for 4 days
T2 construct: endogenous in cells
T2 sequence (P37238 1-505): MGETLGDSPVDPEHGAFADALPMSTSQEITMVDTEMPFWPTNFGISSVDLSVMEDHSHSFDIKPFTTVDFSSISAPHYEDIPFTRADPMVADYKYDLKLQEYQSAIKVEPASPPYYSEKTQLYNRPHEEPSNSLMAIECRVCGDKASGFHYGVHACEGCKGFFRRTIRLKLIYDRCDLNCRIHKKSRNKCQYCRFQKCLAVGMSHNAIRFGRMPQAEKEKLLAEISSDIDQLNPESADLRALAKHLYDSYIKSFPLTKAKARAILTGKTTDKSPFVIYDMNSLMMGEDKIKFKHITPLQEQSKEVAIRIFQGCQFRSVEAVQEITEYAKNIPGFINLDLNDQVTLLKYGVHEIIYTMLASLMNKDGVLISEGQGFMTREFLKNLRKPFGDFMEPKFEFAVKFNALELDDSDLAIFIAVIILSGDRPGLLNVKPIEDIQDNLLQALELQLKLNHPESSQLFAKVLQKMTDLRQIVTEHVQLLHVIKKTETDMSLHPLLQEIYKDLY

[3] = test system: PPARγ2; test: GST / His pull-down and immunoprecipitation of sLZIP with PPARγ2; format: binding
Description: 293T cells were obtained and washed with cold PBS. The cells were re-suspended in an IP lysis buffer [25 mM of Tris-HCl (pH 7.4), 150 mM of NaCl, 1 mM of EDTA, 1% NP-40 and 5% glycerol, and a protease inhibitor]. A suspension was centrifuged at 16,000×g for 20 minutes at 4° C. Supernatants were collected and incubated with 0.5 μg of appropriate antibodies and 25 μl of protein A/G-agarose or a GST Sepharose 4B bead for 24 hours at 4° C. A protein complex was centrifuged at 1,000×g with a cold IP lysis buffer for 1 minute and washed five times. The final pellet was re-suspended in 50 μl of an SDS-sample buffer containing 5% β-mercaptoethanol and heated for 10 minutes at 100° C. A protein sample was isolated in SDS-PAGE (8 to 10%) and transferred to nitrocellulose membranes. Co-precipitated proteins were detected according to western blotting using specific antibodies.
In order to examine whether the transcriptional activity of PPARγ2 is regulated by interaction with sLZIP, interaction between sLZIP and PPARγ2 was examined. For this purpose, 293T cells were transfected with GST-sLZIP and Myc-PPARγ2. Cell lysates were obtained and GST pull-down analysis was performed using a glutathione 4B bead. A protein complex was analyzed in SDS-PAGE and then immunoblotted with specific antibodies (FIG. 2A). The 293T cells were transfected with GST-PPARγ2 and Flag-sLZIP, and identified according to GST-pull-down analysis (FIG. 2B). PPARγ2 was translated in vitro by a TNT translation system (Promega). His-sLZIP proteins were expressed in BL21 cells using an IPTG-inducement system. Purified His-sLZIP proteins were subjected to His pull-down analysis. Proteins bound to the bead were analyzed in SDS-PAGE, and then immunoblotted with anti-PPARγ2 and anti-His antibodies (FIG. 2C). GFP-PPARγ2 and Flag-sLZIP constructs were expressed in C3H10T1/2 cells, and analyzed using mouse anti-Flag and Texas Red-labeled anti-mouse antibodies under a fluorescence microscope. The nucleus was stained with DAPI (FIG. 2D).
Activation of many nuclear receptors depends on a supplement of coactivators. Therefore, a domain of sLZIP necessary for binding with PPARγ2 was examined. For this purpose, 293T cells were transfected with GST-full length sLZIP (1-354), N-terminal deletion mutant sLZIP (1-228), C-terminal deletion mutant sLZIP (229-354), CC-terminal deletion mutant sLZIP (297-354) and PPARγ2. Cell lysates were obtained and GST pull-down analysis was performed using a glutathione 4B bead. A protein complex was analyzed in SDS-PAGE, and then immunoblotted with specific antibodies (FIG. 3A). 293T cells were transfected with Flag-full length PPARγ2, full length PPARγ2, N-terminal deletion mutant PPARγ2 (1-310), C-terminal deletion mutants PPARγ2 (139-505) and GST-sLZIP. Cell lysates were obtained and GST pull-down analysis was performed. A protein complex was analyzed in SDS-PAGE, and then immunoblotted with anti-GST and anti-Flag antibodies (FIG. 3B).
For this purpose, 293T cells were transfected with GST-PPARγ2 and Flag-sLZIP and were treated or not treated with 10 nM of RZD for 24 hours. Cell lysates were obtained and GST pull-down analysis (FIG. 5A) and immunoprecipitation (FIG. 5B) were performed using a glutathione 4B bead. A protein complex was analyzed in SDS-PAGE, and immunoblotted with anti-GST and anti-Flag antibodies. GST-PARγ2 and Flag-sLZIP were expressed in the 293T cells, and the cells were treated with 10 nM of RZD according to time of day. The cell lysates were GST pull-down analyzed (FIG. 5C). 293T cells were transfected with GST-HDAC3 and Flag-sLZIP, and treated or not treated with 10 nM of RZD for 24 hours. The cell lysates were GST pull-down analyzed (FIG. 5D). Flag-sLZIP was expressed in the 293T cells, and the cells were treated with 10 nM of RZD for 24 hours. Immunoprecipitation analysis of the cell lysates was performed using anti-NCoR1 antibodies. […]

[4] = GST pull-down, transfected 293T cells

| Molecule | HDAC3 ubiquitination [1] | transcriptional activity of PPARγ2 (relative luciferase activity) [2] | interaction with PPARγ2 [3, 4] | interaction with PPARγ2 ([3]; GST pull-down, transfected 293T cells, listed as wild type sLZIP) | direct interaction with PPARγ2 ([3]; His pull-down, purified His-sLZIP and in vitro translated PPARγ2) | interaction with PPARγ2 ([3]; ligand treated (10 nM RZD), GST pull-down or immunoprecipitation) | interaction with PPARγ2 ([3]; no stimulation with a ligand, GST pull-down) |
| --- | --- | --- | --- | --- | --- | --- | --- |
| B1 | inhibited HDAC3 ubiquitination | decreased | PPARγ2 interacted with sLZIP | interacted with PPARγ2 | directly bound | dissociated from sLZIP; also recorded: dissociated from PPARγ2 in a time-dependent manner | interacted with PPARγ2 |
| B2 |  |  | not interacted with PPARγ2 |  |  |  |  |
